Where two headings read alike, the source gives them in different places.
Key:
[1] = target: T1, murine pro-myostatin (mouse, UniProt O08689 25-376); experiment: ForteBio BLI
T1 construct: Recombinant in the BLI and reporter assays; endogenous mouse protein in the immunoprecipitation and immunofluorescence experiments; also called proGDF8 (mouse); Murine ProGDF8

[2] = target: murine latent GDF11 (murine, UniProt Q9Z1W4 21-296; Q9Z1W4 297-405, limits assumed); experiment: ForteBio BLI
[3] = target: T2, mature myostatin growth factor (UniProt O14793 267-375, limits assumed); experiment: ForteBio BLI
T2 construct: mature; Amine-coupled to the sensor tips; also called Mature GDF8

[4] = target: murine pro + latent GDF11 (murine, UniProt Q9Z1W4 21-405, limits assumed); experiment: ForteBio BLI
[5] = target: T3, murine latent myostatin (mouse, UniProt O08689 25-267; O08689 268-376, Non-covalent complex of prodomain and growth factor; disulfide-linked homodimer, one copy of each chain is given.); experiment: ForteBio BLI
T3 construct: recombinant in BLI, endogenous in serum immunoprecipitation; also called Murine Latent GDF8; copies: 2 + 2

[6] = target: T1, murine pro-myostatin; experiment: cell-based or functional assay
[7] = target: human pro-myostatin (human, UniProt O14793 24-375); experiment: cell-based or functional assay
[8] = target: T4, pro-myostatin (proGDF8), species not stated in the experiment (UniProt O14793 24-375, limits assumed); experiment: ForteBio Octet, biotinylated antigen on streptavidin sensor; IgG1
T4 construct: also called pro/latent-myostatin

[9] = target: T1, murine pro-myostatin; experiment: cell-based or functional assay; remark: listed apart in the source
[10] = target: T1, murine pro-myostatin; experiment: cell-based or functional assay; remark: listed apart in the source
[11] = target: T1, murine pro-myostatin; experiment: ForteBio Octet BLI kinetics
[12] = target: T1, murine pro-myostatin; experiment: ForteBio Octet BLI kinetics; remark: listed apart in the source
[13] = target: T1, murine pro-myostatin; experiment: cell-based or functional assay; remark: listed apart in the source
[14] = target: proGDF11 (UniProt O95390 25-407, limits assumed); experiment: ForteBio Octet QKe BLI, antibody 50 µg/mL; flagged * non-specific binding, fitted to a poor response
Description: Binding affinities of antibody candidates were determined using the FortéBio Octet QKe dip and read label free assay system utilizing bio-layer interferometry. Antigens were immobilized to biosensors (streptavidin-coated biosensors for proGDF8, proGDF11 and proActivin; direct amine coupling for all others) in each experiment and the antibodies/constructs were presented in solution at high concentration (50 μg/mL) to measure binding interactions.

[15] = target: T1, murine pro-myostatin; experiment: cell-based or functional assay; remark: listed apart in the source
[16] = target: T1, murine pro-myostatin; experiment: ForteBio Octet BLI kinetics; remark: listed apart in the source

Chain of murine pro + latent GDF11 (Q9Z1W4 21-405 limits assumed): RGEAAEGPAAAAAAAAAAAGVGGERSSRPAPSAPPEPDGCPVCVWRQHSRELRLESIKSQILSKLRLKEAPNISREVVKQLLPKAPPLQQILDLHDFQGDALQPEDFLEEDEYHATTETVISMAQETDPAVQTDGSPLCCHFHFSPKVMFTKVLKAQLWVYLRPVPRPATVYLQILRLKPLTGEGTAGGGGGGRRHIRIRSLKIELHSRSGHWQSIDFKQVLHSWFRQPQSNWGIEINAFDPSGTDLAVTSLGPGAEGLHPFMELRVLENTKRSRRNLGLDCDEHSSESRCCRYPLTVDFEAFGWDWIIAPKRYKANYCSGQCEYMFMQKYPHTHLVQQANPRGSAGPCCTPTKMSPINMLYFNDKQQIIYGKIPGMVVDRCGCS
Chain of murine latent GDF11 (Q9Z1W4 21-296 limits assumed, chain 1 of 2): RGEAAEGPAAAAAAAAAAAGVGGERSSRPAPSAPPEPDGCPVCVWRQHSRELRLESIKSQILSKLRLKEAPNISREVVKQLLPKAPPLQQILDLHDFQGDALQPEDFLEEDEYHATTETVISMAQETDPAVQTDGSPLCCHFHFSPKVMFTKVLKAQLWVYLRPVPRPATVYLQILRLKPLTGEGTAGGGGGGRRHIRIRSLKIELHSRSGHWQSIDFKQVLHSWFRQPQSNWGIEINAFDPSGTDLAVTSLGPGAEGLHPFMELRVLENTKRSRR
Chain of murine latent GDF11 (Q9Z1W4 297-405 limits assumed, chain 2 of 2): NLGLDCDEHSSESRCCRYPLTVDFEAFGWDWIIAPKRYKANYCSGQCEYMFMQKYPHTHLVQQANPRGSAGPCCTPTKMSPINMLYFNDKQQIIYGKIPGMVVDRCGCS
Chain of proGDF11 (O95390 25-407 limits assumed): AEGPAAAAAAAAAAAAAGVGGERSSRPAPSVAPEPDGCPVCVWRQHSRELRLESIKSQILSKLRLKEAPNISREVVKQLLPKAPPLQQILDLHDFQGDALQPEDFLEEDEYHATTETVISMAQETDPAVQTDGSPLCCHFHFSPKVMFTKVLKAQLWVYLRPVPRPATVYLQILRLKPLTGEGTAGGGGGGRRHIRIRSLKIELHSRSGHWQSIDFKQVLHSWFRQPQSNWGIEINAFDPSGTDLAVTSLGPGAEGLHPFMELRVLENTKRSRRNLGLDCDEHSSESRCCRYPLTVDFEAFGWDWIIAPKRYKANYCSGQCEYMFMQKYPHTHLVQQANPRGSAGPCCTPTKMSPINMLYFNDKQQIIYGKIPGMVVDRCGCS

| Kd [1] | binding result [2] | binding result [4] | Kd [5] | binding result [3] | Human proGDF8 IC50, Reporter assay [7] | Kd [8] | EC50 Activation Assay [9] | Binder | also measured |
| --- | --- | --- | --- | --- | --- | --- | --- | --- | --- |
| 4.7 nM | no binding (tested: 200 nM) | no binding (tested: 200 nM) | 11 nM |  |  |  |  | Ab15 (antibody, V domains shown, Fully human antibody) VH: EVQLVQSGGGLVQPGRSLRLSCAASGFTFDDYAMHWVRQAPGKGLEWVSGISWNSGSIGYADSVKGRFTISRDNSKNTLYLQMNSLRAEDTAVYYCAKVDGLEYSSGHNFDYWGQGTLVTVSS VL: QSALTQPPSVSGSPGQSVTISCTGSSSDVGYYDHVSWYQHHPGRAPKVIIYDVTKRPSGVPDRFSGSKSGNTASLTISGLQAEDEADYYCSSYAGSYTWVFGGGTELTVLG | Kd [3]: 9.5 nM |
| 4.3 nM | no binding (tested: 200 nM) | no binding (tested: 200 nM) |  | no binding (tested: 333 nM) |  |  |  | Ab13 (antibody, V domains shown, Fully human antibody) VH: EVQLVQSGGGLVQPGRSLRLSCAASGFTFDDYAMHWVRQAPGKGLEWVSGISWNSGSIGYADSVKGRFTISRDNAKNSLYLQMNSLRAEDTALYYCAKDTSNGGYSSSSFDYWGQGTLVTVSS VL: QSALTQPASVSGSPGQSITISCTGTSSDVGGYNYVSWYQQHPGTAPKLMIYDVSYRPSGVSNRFSGSKSGNTASLTISGLQAEDEADYYCSSYTSSSTLVFGTGTKVTVLG |  |
| 1.6 nM | no binding (tested: 200 nM) | no binding (tested: 200 nM) | 1.8 nM | no binding (tested: 333 nM) |  |  | 1380 nM | Ab11 (antibody, V domains shown, Fully human antibody) VH: QLQLQQSGGGLVKPGGSLRLSCAASGFTFSSYSMNWVRQAPGKGLEWVSSISSSSSYIYYADSVKGRFTISRDNAKNSLYLQMNSLRAEDTAVYYCVRDRHSLGDFDYWGQGTLVTVSS VL: SSELTQPSVSVSPGQTATITCSGDKLGDKYASWYQQKPGQSPVLVIYQDTKRPSGIPARFSGSNSGNTATLTISGTQAMDEAAYYCQAWDSTTVVFGGGTKLTVLG |  |
|  | no binding (tested: 200 nM) | no binding (tested: 200 nM) | 18.8 nM |  |  |  |  | Ab14 (antibody, V domains shown, Fully human antibody) VH: EVQLLESRAEVKKPGESLKISCKGSGYSFTSYWIGWVRQMPGKGPEWMGIIYPGDSDTRYSPSFQGQVTISADKSISTAYLQWSSLKASDTAMYYCARLVYGGYDEPGYYFDYWGQGTLVTVSS VL: not shown | Kd [3]: 2.1 nM |
| 3.9 nM | no binding (tested: 200 nM) | no binding (tested: 200 nM) | 1.9 nM | no binding (tested: 333 nM) |  |  |  | Ab12 (antibody, V domains shown, Fully human antibody) VH: QVQLVQSGGGLIQPGGSLRLSCAASGFTVSSYSMNWVRQAPGKGLEWVSYISSSGSTIYYADSVKGRFTISRDNAKNSLYLQMNSLRAEDTALYYCAKVGTAAAGDAFDIWGQGTMVTVSS VL: not shown |  |

Further lines, the binder ahead of its results:

| Binder | Kd [1] | binding result [2] | binding result [4] | Kd [5] | binding result [3] | Human proGDF8 IC50, Reporter assay [7] | Kd [8] | EC50 Activation Assay [9] | also measured |
| --- | --- | --- | --- | --- | --- | --- | --- | --- | --- |
| Ab8 (antibody, V domains shown) VH: QIQLVQSGAEVKKPGASVKVSCKASGYTFTSYGISWVRQAPGQGLEWMGWISAYNGNTNYAQKLQGRVTMTTDTSTSTAYMELSSLRSEDTAVYYCARVGFYDYVWGSYPYDAFDIWGQGTMVTVSS VL: EIVMTQSPGTLSLSPGERATLSCRASQSVSSNYLAWYQQKPGQAPRLLIYDASNRATGIPARFSGSGSGTDFTLTISSLEPEDFALYYCQQYGTSPLTFGGGTKLEIKR | 1.4 nM | no binding (tested: 200 nM) | no binding (tested: 200 nM) |  | no binding (tested: 333 nM) | 6040 nM | 500 nM | 1600 nM | Murine proGDF8 IC50, Reporter assay [6]: 139000 nM |
| Ab10 (antibody, V domains shown, also called anti-pro/latent GDF8 antibody, Ab10) VH: EVQLVQSGGGVVQSGRSLRLSCVASGFSFSNYGMHWVRQAPGKGLEWLAFIWYDGSNKWYADSVKGRFTISRDNSKNALYLQMNSLRAEDTAVYYCARDRYSSSWGGGFDYWGQGTVLTVSS VL: NFMLTQPHSVSESPGRTVTIPCSGRGGSIASDSVQWYQQRPGSAPTTIIYEDNQRPSGVPDRFSGSVDSSSNSASLTISGLRTEDEADYYCQSYDASSLWVFGGKTKLTVLG | 3.7 nM | no binding (tested: 200 nM) | no binding (tested: 200 nM) | 4.2 nM | no binding (tested: 333 nM) | 772 nM | 300 nM | 373 nM |  |
| Ab1 (parental), IgG4 (S228P)/lambda (antibody, V domains shown, Fully human IgG4 (S228P), lambda; also called parental Ab1 IgG4; copies: 2 + 2) VH: QIQLVQSGGGVVQPGRSLRLSCAASGFTFSSYGMHWVRQAPGKGLEWVAVISYDGSNKYYADSVKGRFTISRDNSKNTLYLQMNSLRAEDTAVYYCARDLLVRFLEWSHYYGMDVWGQGTTVTVSS VL: not shown |  |  |  |  |  |  |  |  | Activity Assay - 293T cells EC50 [10]: 839 nM; Kd [11]: 11 nM; koff [11]: 0.00262 s⁻¹; kon [11]: 237000 M⁻¹ s⁻¹ |
| Ab4 (germlined Ab3), IgG4 (S228P)/lambda (antibody, V domains shown, Human IgG4/lambda) VH: QVQLVESGGGVVQPGRSLRLSCAASGFAFSSYGMHWVRQAPGKGLEWVAVISYDGSIKYYADSVKGRFTISRDNSKNTLYLQMNSLRAEDTAVYYCARDLLVRFLEWSHKYGMDVWGQGTTVTVSS VL: not shown |  |  |  |  |  |  |  |  | Kd [12]: 1.08 nM; koff [12]: 0.000272 s⁻¹; kon [12]: 253000 M⁻¹ s⁻¹; Activity Assay - 293T cells EC50 [13]: 447 nM; Kd [14]: 125 nM |
| Ab6 (germlined Ab5), IgG4 (S228P)/lambda (antibody, V domains shown, Human IgG4/lambda) VH: QVQLVESGGGVVQPGRSLRLSCAASGFAFSSYGMHWVRQAPGKGLEWVAVISYDGNNKYYADSVKGRFTISRDNSKNTLYLQMNSLRAEDTAVYYCARDLLVRFLEWSHKYGMDVWGQGTTVTVSS VL: not shown |  |  |  |  |  |  |  |  | Activity Assay - 293T cells EC50 [15]: 307 nM; Kd [14]: 60.7 nM; Kd [16]: 0.954 nM; koff [16]: 0.000281 s⁻¹; kon [16]: 294000 M⁻¹ s⁻¹ |
| Ab7 (antibody, V domains shown) VH: QVQLQQSGAEVKKPGASVKVSCKASGYTFTSYYMHWVRQAPGQGLEWMGIINPSGGSTSYAQKFQGRVTMTRDTSTSTVYMELSSLRSEDTAVYYCARESLIRFLEDPQQGGMDVWGQGTTVTVSS VL: QSALTQPASVSGSPGQSLTISCTGTSSDIGGYNYVSWYQQHPGKAPKLIIYDVTDRPSGVSGRFSGSKSGNTASLTISGLQTEDEAEYFCNSWTRSNNYIFGGGTKLTVLG | 32.9 nM | no binding (tested: 200 nM) | no binding (tested: 200 nM) | 28.4 nM | no binding (tested: 333 nM) | 983 nM | 28000 nM | 555 nM | Murine proGDF8 IC50, Reporter assay [6]: 1680 nM |
| Ab9 (antibody, V domains shown) VH: QVQLVQSGAEVKKPGSSVKVSCKASGGTFSSYAISWVRQAPGQGLEWMGGIIPIFGTANYAQKFQGRVTITADESTSTAYMELSSLRSEDTAVYYCANHGLMDDSSGYYLSNAFDIWGQGTMVTVSS VL: not shown | 8.5 nM | no binding (tested: 200 nM) | no binding (tested: 200 nM) | 7.8 nM | no binding (tested: 333 nM) | 12200 nM | 22000 nM |  | Murine proGDF8 IC50, Reporter assay [6]: 19900 nM |

Reference: patent publication US20260242455A1 (SCHOLAR ROCK, published 2026)
